Test results reported in patent publication US20210040194A1 (AstraZeneca / MedImmune, published 2021).

Legend:
Human ANG-2 (huAng2) [1] = target: T1, Human ANG-2 (huAng2) (human, UniProt O15123 19-496, limits assumed); assay: KinExA equilibrium, standard affinity model (ref [Ligand])
T1 construct: also called human Ang2-biotin
T1 sequence (looked up): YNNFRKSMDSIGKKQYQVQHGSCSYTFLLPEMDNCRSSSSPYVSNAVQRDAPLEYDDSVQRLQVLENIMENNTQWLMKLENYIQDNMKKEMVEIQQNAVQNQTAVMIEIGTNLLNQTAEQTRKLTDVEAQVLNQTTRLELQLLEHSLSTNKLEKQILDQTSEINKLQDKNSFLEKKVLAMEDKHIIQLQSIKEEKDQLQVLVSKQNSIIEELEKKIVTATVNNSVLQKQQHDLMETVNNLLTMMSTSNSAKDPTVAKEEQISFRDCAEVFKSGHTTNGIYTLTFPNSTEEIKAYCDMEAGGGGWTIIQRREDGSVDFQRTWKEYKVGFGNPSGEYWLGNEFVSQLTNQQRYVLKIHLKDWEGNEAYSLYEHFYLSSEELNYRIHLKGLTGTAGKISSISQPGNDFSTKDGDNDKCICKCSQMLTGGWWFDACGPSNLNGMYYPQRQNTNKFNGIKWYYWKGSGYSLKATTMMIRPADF
Protocol: (§1) Human ANG-2 (huAng2) protein was coated onto UltraLink® Biosupport beads (PIERCE, Rockford, Ill.) at concentrations of 5 mg/mL and 30 mg/mL in coating buffer (50 mM sodium carbonate buffer, pH 9). Coated beads were then separated (gentle pulse spin) from unreacted huAng2 protein solution, and blocked with 1M Tris, pH 8, containing BSA at 10 mg/mL) for approximately 15 minutes at room temperature. After this, the bead slurry was spun to remove the blocking solution, and then the block step was repeated for approximately 2 hours using fresh block buffer, and stored at 4° C. until used. Prior to use, the huAng2-coated beads were transferred to a bead vial, resuspended in approximately 27 mLs of instrument buffer (HBS-P buffer, pH 7.4; contains 10 mM HEPES, 0.15M NaCl, 0.005% P20+0.02% NaN3), and affixed to the KinExA instrument. […] These concentrations of bispecific antibody were chosen to allow measurements to be made under both receptor- and KD-controlled conditions, which would allow for more rigorous estimations of reagent activity and affinity, respectively. Two-fold serial dilutions of huAng2 protein were then titrated across nine of the tubes containing the bispecific solutions, followed by 10-fold-dilutions across two more tubes, leaving one tube as the bispecific-only, “zero” control. […]

Human ANG-2 (huAng2) [2] = target: T1, Human ANG-2 (huAng2); assay: KinExA equilibrium, alternate model (ref [IgG])
Protocol: as §1

cyno Ang2 = target: T2, cyno Ang2 (cyno, UniProt A0A2K5VNX6 19-496); assay: cell-based or functional assay
T2 sequence: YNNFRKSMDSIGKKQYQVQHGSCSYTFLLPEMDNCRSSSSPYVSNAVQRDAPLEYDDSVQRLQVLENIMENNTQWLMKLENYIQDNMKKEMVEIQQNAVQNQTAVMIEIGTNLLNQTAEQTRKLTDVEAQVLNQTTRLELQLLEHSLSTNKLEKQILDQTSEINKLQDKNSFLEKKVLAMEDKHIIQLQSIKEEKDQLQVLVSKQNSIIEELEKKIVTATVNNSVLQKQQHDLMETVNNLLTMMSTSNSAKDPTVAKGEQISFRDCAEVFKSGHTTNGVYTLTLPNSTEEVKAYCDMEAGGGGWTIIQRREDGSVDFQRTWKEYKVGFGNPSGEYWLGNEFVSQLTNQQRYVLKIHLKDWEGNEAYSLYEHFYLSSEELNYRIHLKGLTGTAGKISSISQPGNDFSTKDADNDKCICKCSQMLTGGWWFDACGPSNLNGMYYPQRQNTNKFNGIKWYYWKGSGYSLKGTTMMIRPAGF

mouse Ang2 = target: T3, mouse Ang2 (mouse, UniProt O35608 19-496, limits assumed); assay: cell-based or functional assay
T3 sequence (looked up): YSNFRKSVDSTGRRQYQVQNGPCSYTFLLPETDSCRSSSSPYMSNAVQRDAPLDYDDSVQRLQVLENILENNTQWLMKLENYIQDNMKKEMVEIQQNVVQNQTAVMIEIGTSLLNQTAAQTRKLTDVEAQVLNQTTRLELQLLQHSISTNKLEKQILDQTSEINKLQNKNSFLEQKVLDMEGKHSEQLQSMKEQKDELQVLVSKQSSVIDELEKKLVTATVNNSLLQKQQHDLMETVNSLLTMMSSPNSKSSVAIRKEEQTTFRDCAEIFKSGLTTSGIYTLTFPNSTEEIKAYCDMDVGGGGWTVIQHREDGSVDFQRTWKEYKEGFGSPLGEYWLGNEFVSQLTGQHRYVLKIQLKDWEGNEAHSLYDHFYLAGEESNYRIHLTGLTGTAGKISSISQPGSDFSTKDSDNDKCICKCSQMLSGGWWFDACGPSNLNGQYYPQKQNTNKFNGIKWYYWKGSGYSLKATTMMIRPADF

Human ANG-2 (huAng2) [3] = target: T1, Human ANG-2 (huAng2); assay: cell-based or functional assay

- Kd (Human ANG-2 (huAng2) [1]): 0.0233 nM
- Kd (Human ANG-2 (huAng2) [2]): 0.00435 nM
- Cyno pTie2 EC50 (nM) (cyno Ang2): 3.47 nM
- Mu pTie2 EC50 (nM) (mouse Ang2): 12.2 nM
- Hu pTie2 EC50 (nM), Hek293-Tie2 cells (Human ANG-2 (huAng2) [3]): 2.29 nM
B1: BiS3Ab-VEGF H1RK-ANG-2 (bispecific antibody, human IgG1, kappa)
heavy: not shown
light: EIVLTQSPATLSLSPGERATLSCRASQSVHSSYLAWYQQKPGQAPRLLIYGASSRATGIPDRFSGSGSGTDFTLTISRLEPEDFAVYYCQQSYRTPSFGQGTRLEIKRTVAAPSVFIFPPSDEQLKSGTASVVCLLNNFYPREAKVQWKVDNALQSGNSQESVTEQDSKDSTYSLSSTLTLSKADYEKHKVYACEVTHQGLSSPVTKSFNRGEC
notes: Full-length IgG (Fab arm anti-VEGF-A) with an anti-ANG-2 scFv linked to the C-terminus of each heavy chain (BiS3 format); also called BiSAb-VEGF H1RK-ANG-2; Bs3Ab-VEGF-Ang2
